Laboratory results: patent US20150344570A1 (published 2015)

T1: FcγRIIa R (human, UniProt P12318 34-217)
T1 construct: extracellular domain; also called FcgRIIa R type; 2aR
T1 sequence (looked up): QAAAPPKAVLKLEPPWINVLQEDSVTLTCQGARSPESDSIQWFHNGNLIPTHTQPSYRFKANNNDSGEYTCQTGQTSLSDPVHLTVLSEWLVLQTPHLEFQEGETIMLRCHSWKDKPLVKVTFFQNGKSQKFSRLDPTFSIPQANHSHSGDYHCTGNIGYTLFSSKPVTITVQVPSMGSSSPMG

B1: GpH7-B3 variant K326_03V/GpL16-k0 (antibody, human IgG1, kappa)
heavy: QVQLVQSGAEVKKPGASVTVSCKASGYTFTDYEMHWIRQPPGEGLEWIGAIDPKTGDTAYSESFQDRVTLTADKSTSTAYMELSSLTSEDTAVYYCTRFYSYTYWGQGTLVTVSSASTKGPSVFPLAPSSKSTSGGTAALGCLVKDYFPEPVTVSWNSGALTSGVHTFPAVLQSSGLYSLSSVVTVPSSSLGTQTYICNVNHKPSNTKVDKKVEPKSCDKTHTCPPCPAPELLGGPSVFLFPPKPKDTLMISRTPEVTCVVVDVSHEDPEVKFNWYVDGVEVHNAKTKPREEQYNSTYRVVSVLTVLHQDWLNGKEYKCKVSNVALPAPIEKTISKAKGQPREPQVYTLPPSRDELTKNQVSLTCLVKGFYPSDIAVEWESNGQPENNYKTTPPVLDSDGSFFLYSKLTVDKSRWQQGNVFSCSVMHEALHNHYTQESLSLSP
light: DIVMTQSPLSLPVTPGEPASISCQASESLVHSNRNTYLHWYLQKPGQSPQLLIYKVSNRFSGVPDRFSGSGSGTDFTLKISRVEAEDVGVYYCSQNTHVPPTFGQGTKVEIERTVAAPSVFIFPPSDEQLKSGTASVVCLLNNFYPREAKVQWKVDNALQSGNSQESVTEQDSKDSTYSLSSTLTLSKADYEKHKVYACEVTHQGLSSPVTKSFNRGEC
notes: also called Ho Ab K326_03V
B2: GpH7-B3 variant K334_13S/GpL16-k0 (antibody, human IgG1, kappa)
heavy: not shown
light: B1 light
notes: also called Ho Ab K334_13S
B3: GpH7-B3 variant L328_09D/GpL16-k0 (antibody, human IgG1, kappa)
heavy: not shown
light: B1 light
notes: also called Ho Ab L328_09D
B4: GpH7-B3 variant H268_12R/GpL16-k0 (antibody, human IgG1, kappa)
heavy: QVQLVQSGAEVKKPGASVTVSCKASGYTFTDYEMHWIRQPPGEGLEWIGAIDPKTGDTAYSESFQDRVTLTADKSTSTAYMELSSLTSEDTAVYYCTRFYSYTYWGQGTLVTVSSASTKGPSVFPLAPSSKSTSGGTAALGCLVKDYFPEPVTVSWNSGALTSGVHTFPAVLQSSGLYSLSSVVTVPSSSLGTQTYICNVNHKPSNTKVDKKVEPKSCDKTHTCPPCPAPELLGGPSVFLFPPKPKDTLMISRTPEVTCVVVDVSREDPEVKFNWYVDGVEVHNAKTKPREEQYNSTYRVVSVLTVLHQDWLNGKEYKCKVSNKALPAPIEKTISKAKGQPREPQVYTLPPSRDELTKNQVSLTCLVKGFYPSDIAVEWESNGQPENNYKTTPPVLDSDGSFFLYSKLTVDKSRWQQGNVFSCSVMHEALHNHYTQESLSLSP
light: B1 light
notes: also called Ho Ab H268_12R
B5: GpH7-B3 variant L328_14T/GpL16-k0 (antibody, human IgG1, kappa)
heavy: not shown
light: B1 light
notes: also called Ho Ab L328_14T
B6: GpH7-B3 variant N325_13S/GpL16-k0 (antibody, human IgG1, kappa)
heavy: not shown
light: B1 light
notes: also called Ho Ab N325_13S
B7: GpH7-B3 variant I332_06M/GpL16-k0 (antibody, human IgG1, kappa)
heavy: not shown
light: B1 light
notes: also called Ho Ab I332_06M
B8: GpH7-B3 variant K326_04F/GpL16-k0 (antibody, human IgG1, kappa)
heavy: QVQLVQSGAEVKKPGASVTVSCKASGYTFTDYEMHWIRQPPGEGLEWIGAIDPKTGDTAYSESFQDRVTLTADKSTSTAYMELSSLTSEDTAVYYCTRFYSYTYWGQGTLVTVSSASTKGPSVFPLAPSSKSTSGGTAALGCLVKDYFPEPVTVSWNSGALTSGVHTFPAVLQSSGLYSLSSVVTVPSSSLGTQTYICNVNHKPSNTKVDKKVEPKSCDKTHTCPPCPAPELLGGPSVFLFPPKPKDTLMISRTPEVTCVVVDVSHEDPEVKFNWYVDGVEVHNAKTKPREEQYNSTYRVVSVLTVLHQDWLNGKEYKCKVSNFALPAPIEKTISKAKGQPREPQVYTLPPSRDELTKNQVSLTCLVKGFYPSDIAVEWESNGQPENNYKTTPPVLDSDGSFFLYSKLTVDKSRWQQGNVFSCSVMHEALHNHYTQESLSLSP
light: B1 light
notes: also called Ho Ab K326_04F
B9: GpH7-B3 variant K326_18N/GpL16-k0 (antibody, human IgG1, kappa)
heavy: not shown
light: B1 light
notes: also called Ho Ab K326_18N
B10: GpH7-B3 variant K326_20W/GpL16-k0 (antibody, human IgG1, kappa)
heavy: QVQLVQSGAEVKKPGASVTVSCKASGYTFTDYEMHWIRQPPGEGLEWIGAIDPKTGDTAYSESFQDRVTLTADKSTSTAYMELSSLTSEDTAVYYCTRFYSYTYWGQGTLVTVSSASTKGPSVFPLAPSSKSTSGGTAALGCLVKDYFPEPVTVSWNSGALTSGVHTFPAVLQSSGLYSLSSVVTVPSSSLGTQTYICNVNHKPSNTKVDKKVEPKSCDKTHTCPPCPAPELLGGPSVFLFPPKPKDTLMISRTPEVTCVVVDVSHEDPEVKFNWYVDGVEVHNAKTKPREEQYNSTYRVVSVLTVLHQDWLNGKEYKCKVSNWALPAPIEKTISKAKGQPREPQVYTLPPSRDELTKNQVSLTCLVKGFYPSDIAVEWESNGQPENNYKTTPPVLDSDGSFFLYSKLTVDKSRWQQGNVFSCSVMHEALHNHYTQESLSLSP
light: B1 light
notes: also called Ho Ab K326_20W
B11: GpH7-B3 variant L234_10E/GpL16-k0 (antibody, human IgG1, kappa)
heavy: not shown
light: B1 light
notes: also called Ho Ab L234_10E
B12: GpH7-B3 variant L235_09D/GpL16-k0 (antibody, human IgG1, kappa)
heavy: not shown
light: B1 light
notes: also called Ho Ab L235_09D
B13: GpH7-B3 variant I336_06M/GpL16-k0 (antibody, human IgG1, kappa)
heavy: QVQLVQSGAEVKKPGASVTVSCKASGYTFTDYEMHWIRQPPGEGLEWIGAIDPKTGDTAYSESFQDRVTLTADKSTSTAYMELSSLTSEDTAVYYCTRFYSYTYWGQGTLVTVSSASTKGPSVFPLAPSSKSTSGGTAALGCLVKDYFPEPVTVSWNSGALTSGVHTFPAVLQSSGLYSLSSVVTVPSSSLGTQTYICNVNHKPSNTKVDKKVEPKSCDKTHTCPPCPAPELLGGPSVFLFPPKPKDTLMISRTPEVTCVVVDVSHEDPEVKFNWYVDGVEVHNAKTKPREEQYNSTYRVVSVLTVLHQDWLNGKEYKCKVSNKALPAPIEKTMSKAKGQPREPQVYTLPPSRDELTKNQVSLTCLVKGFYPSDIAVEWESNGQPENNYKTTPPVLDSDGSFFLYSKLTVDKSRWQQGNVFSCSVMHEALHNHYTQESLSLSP
light: B1 light
notes: also called Ho Ab I336_06M
B14: GpH7-B3 variant H268_03V/GpL16-k0 (antibody, human IgG1, kappa)
heavy: not shown
light: B1 light
notes: also called Ho Ab H268_03V
B15: GpH7-B3 variant N325_07I/GpL16-k0 (antibody, human IgG1, kappa)
heavy: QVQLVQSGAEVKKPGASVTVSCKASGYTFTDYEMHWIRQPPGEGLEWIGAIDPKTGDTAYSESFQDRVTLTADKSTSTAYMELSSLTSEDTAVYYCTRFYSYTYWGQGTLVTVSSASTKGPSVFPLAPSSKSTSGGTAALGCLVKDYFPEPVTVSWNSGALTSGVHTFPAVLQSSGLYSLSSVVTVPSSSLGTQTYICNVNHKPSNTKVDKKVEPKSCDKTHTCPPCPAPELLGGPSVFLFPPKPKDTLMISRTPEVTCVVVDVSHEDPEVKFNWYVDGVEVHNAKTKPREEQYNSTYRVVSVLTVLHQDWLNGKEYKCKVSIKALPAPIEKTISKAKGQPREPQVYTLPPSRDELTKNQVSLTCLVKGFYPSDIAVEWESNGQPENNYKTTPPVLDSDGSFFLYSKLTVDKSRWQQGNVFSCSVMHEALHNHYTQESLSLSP
light: B1 light
notes: also called Ho Ab N325_07I
B16: GpH7-B3 variant N325_09D/GpL16-k0 (antibody, human IgG1, kappa)
heavy: not shown
light: B1 light
notes: also called Ho Ab N325_09D
B17: GpH7-B3 variant I336_18N/GpL16-k0 (antibody, human IgG1, kappa)
heavy: not shown
light: B1 light
notes: also called Ho Ab I336_18N
B18: GpH7-B3 variant L235_04F/GpL16-k0 (antibody, human IgG1, kappa)
heavy: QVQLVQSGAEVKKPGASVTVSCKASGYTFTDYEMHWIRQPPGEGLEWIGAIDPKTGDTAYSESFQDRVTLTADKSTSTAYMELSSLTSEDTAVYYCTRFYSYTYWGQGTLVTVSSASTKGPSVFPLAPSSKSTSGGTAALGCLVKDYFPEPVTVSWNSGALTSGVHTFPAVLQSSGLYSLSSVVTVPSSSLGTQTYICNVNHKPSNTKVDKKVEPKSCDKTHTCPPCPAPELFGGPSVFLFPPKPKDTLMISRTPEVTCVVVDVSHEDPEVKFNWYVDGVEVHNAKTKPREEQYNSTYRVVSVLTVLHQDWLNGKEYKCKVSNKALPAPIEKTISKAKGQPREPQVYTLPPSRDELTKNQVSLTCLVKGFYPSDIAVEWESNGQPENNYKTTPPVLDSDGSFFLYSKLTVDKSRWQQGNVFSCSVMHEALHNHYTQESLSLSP
light: B1 light
notes: also called Ho Ab L235_04F
B19: GpH7-B3 variant I332_14T/GpL16-k0 (antibody, human IgG1, kappa)
heavy: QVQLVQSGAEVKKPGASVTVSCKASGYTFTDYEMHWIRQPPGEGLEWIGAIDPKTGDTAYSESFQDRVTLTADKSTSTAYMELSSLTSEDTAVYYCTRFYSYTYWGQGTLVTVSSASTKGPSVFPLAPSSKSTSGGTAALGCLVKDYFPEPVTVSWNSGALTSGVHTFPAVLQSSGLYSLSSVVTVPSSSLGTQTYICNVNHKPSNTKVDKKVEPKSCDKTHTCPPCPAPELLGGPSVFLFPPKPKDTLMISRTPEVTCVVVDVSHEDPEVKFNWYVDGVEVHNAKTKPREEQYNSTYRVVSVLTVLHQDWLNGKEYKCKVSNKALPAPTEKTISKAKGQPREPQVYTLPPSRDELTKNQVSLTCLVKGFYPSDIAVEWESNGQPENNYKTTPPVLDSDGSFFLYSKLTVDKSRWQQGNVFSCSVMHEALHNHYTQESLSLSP
light: B1 light
notes: also called Ho Ab I332_14T
B20: GpH7-B3 variant L234_09D/GpL16-k0 (antibody, human IgG1, kappa)
heavy: not shown
light: B1 light
notes: also called Ho Ab L234_09D
B21: GpH7-B3 variant N325_06M/GpL16-k0 (antibody, human IgG1, kappa)
heavy: not shown
light: B1 light
notes: also called Ho Ab N325_06M
B22: GpH7-B3 variant K334_10E/GpL16-k0 (antibody, human IgG1, kappa)
heavy: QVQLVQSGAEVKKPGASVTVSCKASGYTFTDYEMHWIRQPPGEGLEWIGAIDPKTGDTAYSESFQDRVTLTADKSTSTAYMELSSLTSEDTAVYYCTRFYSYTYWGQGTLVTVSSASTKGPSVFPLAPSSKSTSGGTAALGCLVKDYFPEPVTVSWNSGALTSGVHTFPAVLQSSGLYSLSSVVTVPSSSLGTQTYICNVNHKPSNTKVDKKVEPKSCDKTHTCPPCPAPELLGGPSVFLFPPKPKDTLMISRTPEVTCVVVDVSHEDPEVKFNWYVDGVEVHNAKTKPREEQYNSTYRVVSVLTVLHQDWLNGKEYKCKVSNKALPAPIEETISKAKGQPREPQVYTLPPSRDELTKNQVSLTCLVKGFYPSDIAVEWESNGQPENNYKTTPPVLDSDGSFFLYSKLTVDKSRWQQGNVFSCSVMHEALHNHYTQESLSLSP
light: B1 light
notes: also called Ho Ab K334_10E
B23: GpH7-B3 variant L235_15Y/GpL16-k0 (antibody, human IgG1, kappa)
heavy: not shown
light: B1 light
notes: also called Ho Ab L235_15Y
B24: GpH7-B3 variant K326_12R/GpL16-k0 (antibody, human IgG1, kappa)
heavy: not shown
light: B1 light
notes: also called Ho Ab K326_12R
B25: GpH7-B3 variant L328_13S/GpL16-k0 (antibody, human IgG1, kappa)
heavy: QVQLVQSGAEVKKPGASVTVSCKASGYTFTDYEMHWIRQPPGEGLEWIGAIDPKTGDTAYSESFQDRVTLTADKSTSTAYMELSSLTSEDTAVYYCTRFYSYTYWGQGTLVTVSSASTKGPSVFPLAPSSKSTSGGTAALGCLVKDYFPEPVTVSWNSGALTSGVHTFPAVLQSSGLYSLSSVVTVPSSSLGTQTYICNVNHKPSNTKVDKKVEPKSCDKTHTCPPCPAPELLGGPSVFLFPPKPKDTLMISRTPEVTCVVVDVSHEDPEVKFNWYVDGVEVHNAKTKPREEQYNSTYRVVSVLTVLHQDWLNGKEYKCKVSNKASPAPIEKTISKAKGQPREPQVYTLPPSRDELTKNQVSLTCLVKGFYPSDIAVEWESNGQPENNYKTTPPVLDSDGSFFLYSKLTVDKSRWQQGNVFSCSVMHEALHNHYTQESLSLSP
light: B1 light
notes: also called Ho Ab L328_13S
B26: GpH7-B3 variant K326_07I/GpL16-k0 (antibody, human IgG1, kappa)
heavy: not shown
light: B1 light
notes: also called Ho Ab K326_07I
B27: GpH7-B3 variant K334_04F/GpL16-k0 (antibody, human IgG1, kappa)
heavy: not shown
light: B1 light
notes: also called Ho Ab K334_04F
B28: GpH7-B3 variant H268_20W/GpL16-k0 (antibody, human IgG1, kappa)
heavy: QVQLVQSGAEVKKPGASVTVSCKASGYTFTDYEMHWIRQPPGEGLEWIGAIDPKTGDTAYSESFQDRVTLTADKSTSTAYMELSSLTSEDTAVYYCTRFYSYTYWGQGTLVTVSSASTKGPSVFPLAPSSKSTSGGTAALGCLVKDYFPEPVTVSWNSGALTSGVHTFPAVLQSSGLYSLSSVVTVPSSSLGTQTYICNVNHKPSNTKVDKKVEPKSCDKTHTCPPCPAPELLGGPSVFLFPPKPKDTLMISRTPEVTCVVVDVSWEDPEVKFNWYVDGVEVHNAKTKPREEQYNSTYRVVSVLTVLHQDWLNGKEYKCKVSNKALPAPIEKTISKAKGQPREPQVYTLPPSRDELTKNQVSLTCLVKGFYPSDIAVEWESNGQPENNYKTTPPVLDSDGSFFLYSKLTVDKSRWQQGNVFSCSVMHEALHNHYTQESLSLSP
light: B1 light
notes: also called Ho Ab H268_20W

molecular target: T1, FcγRIIa R; assay: SPR (Biacore), captured antibody, FcγR as analyte; relative binding activity
Description: Analysis of interaction between objective antibody and the FcγR was carried out using Biacore T100 (GE Healthcare). HBS-EP+ (GE Healthcare) was used as the running buffer, and the measurement temperature was set to 25° C. Chips produced by immobilizing the antigen peptide by the amine coupling method to a Series S Sencor Chip CM5 (GE Healthcare), or alternatively, chips produced by allowing preliminarily biotinylated antigen peptides to interact with and immobilize onto a Series S Sensor Chip SA (certified) (GE Healthcare) were used. Antibodies of interest were captured onto an antigen peptide-immobilized chip, and allowed to interact to each FcγR diluted with running buffer. To regenerate and repeatedly use the chip, the antibodies captured on the chip were washed off by reacting 10 mM glycine-HCl, pH 1.5.

| Ho/Con_2aR | Binder |
| --- | --- |
| 139 % (GpH7-B3/GpL16-k0 = 100) | B1 |
| 106 % (GpH7-B3/GpL16-k0 = 100) | B2 |
| 68.8 % (GpH7-B3/GpL16-k0 = 100) | B3 |
| 98.5 % (GpH7-B3/GpL16-k0 = 100) | B4 |
| 118 % (GpH7-B3/GpL16-k0 = 100) | B5 |
| 126 % (GpH7-B3/GpL16-k0 = 100) | B6 |
| 105 % (GpH7-B3/GpL16-k0 = 100) | B7 |
| 133 % (GpH7-B3/GpL16-k0 = 100) | B8 |
| 113 % (GpH7-B3/GpL16-k0 = 100) | B9 |
| 120 % (GpH7-B3/GpL16-k0 = 100) | B10 |
| 39.9 % (GpH7-B3/GpL16-k0 = 100) | B11 |
| 73 % (GpH7-B3/GpL16-k0 = 100) | B12 |
| 96.4 % (GpH7-B3/GpL16-k0 = 100) | B13 |
| 105 % (GpH7-B3/GpL16-k0 = 100) | B14 |
| 77 % (GpH7-B3/GpL16-k0 = 100) | B15 |
| 74.8 % (GpH7-B3/GpL16-k0 = 100) | B16 |
| 94.5 % (GpH7-B3/GpL16-k0 = 100) | B17 |
| 98.9 % (GpH7-B3/GpL16-k0 = 100) | B18 |
| 99.6 % (GpH7-B3/GpL16-k0 = 100) | B19 |
| 42.8 % (GpH7-B3/GpL16-k0 = 100) | B20 |
| 124 % (GpH7-B3/GpL16-k0 = 100) | B21 |
| 106 % (GpH7-B3/GpL16-k0 = 100) | B22 |
| 111 % (GpH7-B3/GpL16-k0 = 100) | B23 |
| 95.7 % (GpH7-B3/GpL16-k0 = 100) | B24 |
| 108 % (GpH7-B3/GpL16-k0 = 100) | B25 |
| 133 % (GpH7-B3/GpL16-k0 = 100) | B26 |
| 110 % (GpH7-B3/GpL16-k0 = 100) | B27 |
| 110 % (GpH7-B3/GpL16-k0 = 100) | B28 |
